Here are results for four molecules from patent publication US20250011448A1 (STAIDSON BIOPHARMA, published 2025).

T1: human TNFR2 expressed on cells (Expi293 cells stably expressing huTNFR2) (human, UniProt P20333 23-461)
T1 construct: whole, on cells; Also used here as the target of the Treg assay (native TNFR2 on human primary Treg cells); also called huTNFR2 expressed cells; Expi293-TNFR2 cells
T1 sequence (looked up): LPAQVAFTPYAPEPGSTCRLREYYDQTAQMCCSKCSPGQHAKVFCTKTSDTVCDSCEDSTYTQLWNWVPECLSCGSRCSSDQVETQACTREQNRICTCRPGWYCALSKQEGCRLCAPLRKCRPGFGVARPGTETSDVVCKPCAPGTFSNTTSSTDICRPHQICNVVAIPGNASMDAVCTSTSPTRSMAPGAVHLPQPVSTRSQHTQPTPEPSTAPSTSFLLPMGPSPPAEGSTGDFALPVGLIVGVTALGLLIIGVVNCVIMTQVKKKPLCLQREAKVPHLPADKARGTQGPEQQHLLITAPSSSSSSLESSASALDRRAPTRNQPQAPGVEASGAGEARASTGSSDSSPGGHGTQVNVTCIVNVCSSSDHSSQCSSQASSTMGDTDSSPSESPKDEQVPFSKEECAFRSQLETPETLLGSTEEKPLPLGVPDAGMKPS

T2: cynomolgus monkey TNFR2 extracellular domain with C-terminal 10×His tag (cynomolgus monkey, UniProt P20333 23-257 (human entry))
T2 construct: also called cynoTNFR2-His; His-tag-cynoTNFR2
T2 chain: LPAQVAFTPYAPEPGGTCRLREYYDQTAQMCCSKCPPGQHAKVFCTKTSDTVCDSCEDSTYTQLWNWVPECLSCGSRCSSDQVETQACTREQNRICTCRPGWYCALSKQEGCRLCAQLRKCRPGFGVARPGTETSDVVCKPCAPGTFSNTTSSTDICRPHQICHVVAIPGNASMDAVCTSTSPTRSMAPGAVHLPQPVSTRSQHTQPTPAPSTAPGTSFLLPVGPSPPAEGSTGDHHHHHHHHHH

T3: human TNFR2 extracellular domain with C-terminal 10×His tag (human, UniProt P20333 23-257)
T3 construct: also called huTNFR2-His; His-tag-huTNFR2
T3 sequence: T2 chain with G16S, P36S, Q117P, H164N, A210E, G216S, V223M

T4: human TNFR2 extracellular domain fused to human IgG1 Fc (human, UniProt P20333 23-257)
T4 construct: also called TNFR2-huFc; huTNFR2; not shown: C-terminal human IgG1 Fc
T4 sequence: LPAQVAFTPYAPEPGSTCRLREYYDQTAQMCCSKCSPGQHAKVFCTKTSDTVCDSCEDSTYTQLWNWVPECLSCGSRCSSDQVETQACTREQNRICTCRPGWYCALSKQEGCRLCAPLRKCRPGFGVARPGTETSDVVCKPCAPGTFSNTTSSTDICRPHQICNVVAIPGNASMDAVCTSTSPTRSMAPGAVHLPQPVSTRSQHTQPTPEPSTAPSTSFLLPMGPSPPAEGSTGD

B1: 15H10 chimeric anti-TNFR2 antibody (antibody, V domains shown)
VH: DVQLQESGPGLVTPSQSLSLTCSVTGYSITSGYYWNWIRQFPGNKLEWMGYITYDGNNNYNPSLKSRFSITRDTSKNQFFLKLNSVTSEDTATYYCARGDYGDSAMDYWGQGTSVTVSS
VL: EIVLTQSPAITAASLGQKVTITCSASSGVNYMHWYQQKSGTSPKPWIYEISKLASGVPARFSGSGSGTSYSLTISSMEAEDAAIYYCQQWNYPLITFGAGTKVELK
notes: Chimeric: mouse variable domains with human constant regions, made as recombinant IgG1
B2: 11C1 chimeric anti-TNFR2 antibody (antibody, V domains shown)
VH: B1 VH with Q5R, F41I, N61D, S66N, F68I, K82T
VL: B1 VL with G28S, N30S, T73I, V103L
notes: as for B1
B3: 85G8.4 chimeric anti-TNFR2 antibody (antibody, V domains shown)
VH: EVQLQQSGPELVKPGASVKISCKTSGYTFTDFNMDWVKQSHGKSLEWIGYINPNNGDAAYNQKFKSKATLTVDKSSNTAYMELHSLTSDDSAVYYCARWGWAFAYWGQGTLVTVSA
VL: DIVMTQSHKIMSTSVGDRVSITCKASQDVKTAVAWYQQKPGQSPKLLIYATSYRYTGVPDRFTGSGSGTDFTFTISTVQAEDLAVYYCQQHYSIPYTFGGGTKLEIK
notes: as for B1
B4: 29G3 chimeric anti-TNFR2 antibody (antibody, V domains shown)
VH: EVMLVESGGASVKPGGSLKLSCAASGFTFSNFAMSWVRQTPEKRLEWVATIRSGDNYSYYSDNVKGRFTISRDNARNTLYLQMSSLRSKDTSIYYCARNWDKVFDYWGQGTTLTVSS
VL: DIVLTQSPASLAVSLGQRATISCRASESVDSYGYSFMHWYQQKPGQPPKLLIYRASNLKSGIPARFSGSGSRTDFTLTINPVEADDVATYYCQQSNEDHTFGGGTKLEIK
notes: as for B1

Where a chain is given by its changes, count along the chain named.

The target of the first assay is T1, human TNFR2 expressed on cells (Expi293 …). Nature of the assay: flow cytometry: inhibition of binding of 10 nM Alexa Fluor 647 human TNFα to Expi293 cells expressing huTNFR2. The protocol:
Expi293 cells stably expressing huTNFR2 were incubated with anti-TNFR2 antibodies for 30 minutes at 4° C. […] Cells were washed and acquired by flow cytometry with Attune. Data were analyzed with FlowJo software. TNFα binding is represented as MFI.
As shown in Table 10 and FIG. 4B, the anti-TNFR2 chimeric antibodies, 51B5, 85G8.4, 29G3, 11C1, and 15H10 inhibited soluble TNFα binding to TNFR2-expressing Expi293 cells dose-dependently and potently.
On the technique in general: In flow cytometry, cells or beads pass a laser one at a time.
By IC50 is commonly meant the point on the concentration scale where inhibition reaches its midpoint. B1 had an IC50 of 3.37 nM.

Consider B2, for which the IC50 was 2.51 nM.

As to B3, the IC50 is 1.57 nM.

Take B4: the IC50 was 0.275 nM.

Another assay concerns the target T2, cynomolgus monkey TNFR2 extracellular …. Nature of the assay: BLI (Octet RED96), antibody captured on AHC biosensor, His-tagged TNFR2 in solution, 1:1 model. The protocol:
(§1) The following kinetic assay was performed using anti-human IgG Fc capture (AHC) biosensors (ForteBio) in kinetics buffer (PBS, 0.1% Tween-20 and 1% bovine serum albumin): (a) antibody (2 μg/mL) for 300 sec, (b) baseline for 120 sec, (c) association with His-tag-huTNFR2 (2.5, 0.5 and 0 μg/mL) and His-tag-cynoTNFR2 (2.5, 0.5 and 0 μg/mL) for 420 sec and (d) dissociation for 1200 sec. Data fitting and analysis was performed with Octet data analysis software 8.0 (ForteBio) using a 1:1 binding model after Savitzky-Golay filtering.
By Kd is commonly meant the equilibrium constant for the complex coming apart. Usually koff stands for the first-order rate constant of dissociation. As a reminder, the kon is the rate constant with which the complex forms. For B1, the Kd came out at 1.42 nM, the koff is 0.000368 s⁻¹ and the kon came to 259000 M⁻¹ s⁻¹.

With B3, the Kd is 1.3 nM, the off-rate constant (koff) worked out at 0.000534 s⁻¹ and the kon came out at 412000 M⁻¹ s⁻¹.

For the molecule B4, the Kd is 1.59 nM, the off-rate constant (koff) was determined as 0.002 s⁻¹ and the kon amounted to 1.26e+06 M⁻¹ s⁻¹.

The target of the next assay is T3, human TNFR2 extracellular domain with …. The description is as above. The protocol: as §1
As for B1, the Kd amounted to 0.453 nM, the koff was 2.58e-05 s⁻¹ and the kon is 57100 M⁻¹ s⁻¹.

Turning to B2, the Kd is 2.46 nM, the koff was 0.000258 s⁻¹ and the kon was 105000 M⁻¹ s⁻¹.

Regarding B3, the Kd turned out to be 1.95 nM, the koff was found to be 0.000251 s⁻¹ and the kon is 129000 M⁻¹ s⁻¹.

B4 came in with a Kd of 4.53 nM, a koff of 0.00114 s⁻¹ and a kon of 251000 M⁻¹ s⁻¹.

The target in a further assay is T4, human TNFR2 extracellular domain fused …. Kind of assay: blocking ELISA: antibody pre-mixed with huTNFR2, binding of huTNFR2 to coated human TNFα read out. The protocol: 96-well round bottom ELISA plates were coated overnight at 4° C. with 50 μL/well of 0.5 μg/mL human TNFα recombinant protein (R&D system, Cat #210-TA-100) in coating buffer. After removing the coating solution, blocking buffer was added into the plates followed by incubation at room temperature for 1 hour in order to block unspecific binding. During the blocking period, hybridoma antibodies samples were mixed with 0.5 μg/mL TNFR2-huFc at a 1:1 volume ratio and incubated at room temperature for another 1.5 hours. Then 50 μL/well of antigen-antibody mix solution was transferred into TNFα coated wells and incubated at room temperature for 1.5 hours. Plates were then washed 5 times with wash buffer. Then, 50 μL/well of goats anti-human IgG Fc-AP (Southern Biotech, cat #2014-04) at 1:2000 dilution in assay buffer was added, incubated at room temperature for 1 hour, washed 4 times with wash buffer and developed for 30 minutes with 50 μL/well of pNPP substrate. Plates were analyzed with a Synergy HT (Bio-TEK) at 405 nm. Parental hybridomas with the desired human and cynoTNFR2 binding as well as the ability to block human TNFR2 and human TNFα binding were prioritized for subcloning and further characterization. Subcloning was carried out with limited dilution and visual inspection was performed to ensure clonality. Hybridoma subclones were screened with the same binding and blocking assays and selected positive hits were cryopreserved.
TNFR2 blocking by purified recombinant chimeric antibodies: Human TNFR2 blocking ELISA was performed on purified recombinant chimeric antibodies following the same protocol as described above, except that 50 μL/well of serial dilution of purified antibodies (starting at 10 μg/mL, 1:3 dilution) in assay buffer was added into the reaction. The blocking IC₅₀ value represents the antibody concentration that inhibited 50% of huTNFR2 or cynoTNFR2 binding to coated human TNFα or cynomolgus monkey TNFα.
On the technique in general: In an ELISA, binding on a coated surface is turned into a signal by an enzyme label.
For B1, the IC50 worked out at 0.584 nM.

For B2, the IC50 is 0.723 nM.

As for B3, the IC50 was 0.583 nM.

Take B4: the IC50 was 0.505 nM.
